Laboratory results reported in patent publication US20210403586A1, “MUTANT OF RANKL AND PHARMACEUTICAL COMPOSITION COMPRISING SAME FOR PREVENTING OR TREATING OSTEOPOROSIS” (INDUSTRY-ACADEMIC COOPERATION FOUNDATION CHOSUN UNIVERSITY, priority 2018, published 2021).

Columns and labels:
wtRANKL-induced mouse = experiment: mtRANKL immunization in wtRANKL-induced osteoporosis mice, micro-CT; format: in vivo
Procedure: The right femur of each mouse subjected to each experiment was incised and CT imaging was performed using a Quantum GX pCT imaging system (PerkinElmer, Hopkinton, Mass., USA) located at the Korea Basic Science Institute in Gwangju. As for the X-ray source, the field of view was set to 45 mm, 90 kV and […] (voxel size, 90 μm; scanning time, 14 minutes). CT imaging was performed using a Quantum GX 3D Viewer software. After scanning, image segmentation was performed in Analyze (AnalyzeDirect, Overland Park, Kans., USA). Briefly, the legs were segmented using semi-automatic and manual tools (e.g., object extractor, area expansion, and object separator) using volume editing tools. Then, a 3D rendering of the leg was created, and bone mineral density (BMD), bone volume (BV), bone volume percentage (%), and trabecular thickness were calculated using the ROI tools.
17-week-old […] BALB/c mice were equally divided into 3 groups. The group was divided into a negative control group in which PBS was intraperitoneally injected, a group in which only wtRANKL was injected, and a group in which wtRANKL was injected after immunization with mtRANKL for 52 days. mtRANKL was injected after mixing with an aluminum hydroxide adjuvant. The immunization process started with 1st immunization of mtRANKL at 52 days, 2nd immunization at 39 days, 3rd immunization at 14 days each before injection of wtRANKL, and a total of 3 immunizations was performed. The amount of mtRANKL was 0.2 mg per mouse.
After 52 days, PBS was injected into the negative control group and wtRANKL was injected into the other two groups. Next day, wtRANKL was injected once more. wtRANK was subcutaneously injected (2.0 mg/kg). Serum was collected to determine the titer of anti-RANKL antibody. Then, after extracting tibias, the adhesive soft tissues of tibias were removed.
To examine whether RANKL has a bone destruction effect when RANKL was injected after immunization with mtRANKL, micro-CT analysis was performed by the method of Reference Example 6.

RANK and LGR4 signaling = experiment: Western blots of RANK and LGR4 signaling pathway proteins, RANKL variants; format: cell-based, mouse
Procedure: Proteins were separated by SDS-PAGE and electropermeated into a nitrocellulose membrane (Bio-Rad). After blocking the membrane with 5% (weight/volume) skim milk in TBST [10 mM Tris (pH 7.5), 150 mM NaCl, 0.1% (vol/vol) Tween 20], each mouse serum for primary antibody in the blocking solution was examined. The membrane was washed three times with Tris buffered saline. […] peroxidase (HRP)-conjugated secondary antibody was diluted 1:5000 with TBST in 1% (wt/vol) skim milk powder. ECL_system (Amersham Pharmacia Biotech) was used as the membrane.
Primary antibodies: AKT (Cell Signaling Technology, 1:1000), phospho-AKT (Cell Signaling Technology, #9271S, 1:1000), p38 (Cell Signaling Technology, 9212S, 1:1000), phospho-p38 (Cell Signaling Technology, #9211S, 1:1000), ERK (Cell Signaling Technology, 9102S, 1:1000), phospho-ERK (Cell Signaling Technology, #9101S, 1:1000), JNK (Cell Signaling Technology, 9252S, 1:1000), phosphoJNK (Cell Signaling Technology, #9251S, 1:1000), GSK-3β (Cell Signaling Technology, 9315S, 1:1000), phosphoGSK-3β (Cell Signaling Technology, #9336S, 1:1000), Src (Cell Signaling Technology, 2108S, 1:1000), phosphoSrc (Cell Signaling Technology, #2105S, 1:1000), NF-KB p65 (Cell Signaling Technology, #3034, 1:1000), phosphop65 (Cell Signaling Technology, #3031, 1:1000), RANK (Cell Signaling Technology, 4845S, 1:1000), Gaq (Cell Signaling Technology, 14373S, 1:1000), LGR4 (MyBioSource, MBS468030, 1:500), 20112360C-1, and GAPDH (Santa-Cruz Biotechnology, 1:2500).
To investigate the interaction of mRANKL variants and RANK, the co-immunoprecipitation (Co-IP) assays were carried out using mRANKL-WT/mRANKL-MT3 and RANK/LGR4 (FIG. 12A). In addition, wild-type RANKL induced MAPK, AKT, NF-κB p65, and GSK-3 phosphorylation, which is involved in LGR4 signaling (FIG. 12B).

[1] = wtRANKL-injected mice vs mtRANKL-immunized mice with wtRANKL injection

B1: mRANKL-MT3: mouse RANKL mutant: K180R, D189I, R190K, H223F, H224Y; nucleic acid SEQ ID NO: 3 (protein, UniProt O35235 158-316, looked up, variant K180R D189I R190K H223F H224Y)
chain: KPEAQPFAHLTINAASIPSGSHRVTLSSWYHIKGWAKISNMTLSNGKLRVNQDGFYYLYANICFRFYETSGSVPTDYLQLMVYVVKTSIKIPSSHNLMKGGSTKNWSGNSEFHFYSINVGGFFKLRAGEEISIQVSNPSLLDPDQDATYFGAFKVQDID
Question: How did the “bone volume and percentage of bone volume” value (wtRANKL-induced mouse; compared with PBS-treated mice) turn out when B1 was run?
Answer: maintained at similar levels

Question: What about the BMD of tibias (wtRANKL-induced mouse; [1]) of the same molecule?
Answer: 795.8 ± 11.9 mg/mL

Question: What about the “trabecular bone architecture of proximal tibias (micro-CT)” value (wtRANKL-induced mouse; [1]) of the same molecule?
Answer: thicker fibers and higher density than the wtRANKL-injected mice

Question: And the GSK-3 phosphorylation (RANK and LGR4 signaling; BMMs, Western blot)?
Answer: induced

Question: And the “MAPK, AKT, and NF-κB p65 phosphorylation” value (RANK and LGR4 signaling; BMMs, Western blot)?
Answer: lower

Question: And the src phosphorylation (RANK and LGR4 signaling; mRANKL-MT3-induced BMMs vs mRANKL-WT induced BMMs)?
Answer: significantly lower
